Measured values published in the DeepSol protein solubility set.

Test: soluble on expression in E. coli; label from the status in PepcDB or PDB records

Soluble on expression in E. coli, soluble:
TIYLYKNSIPSGKNKGENAILIDNKTIVEQLESAAKKEDKKSGESTTEQTQIQSKSVTEQKQPKIIGYTTTGNVHEDNKHIFPIDKLTSDRNFDRKIIVGATEETLDKSNTLQSNEAIVLPAPSKYKSTDTNKVTITQGPNIIGIHVNEKENAETQKFVDW
DGVGGDPAVALPHRRFEYKYSFKGPHLVQSDGTVPFWAHAGNAIPSSDQIRVAPSLKSQRGSVWTKTKAAFENWEVEVTFRVTGRGRIGADGLAIWYAENQGLEGPVFGSADLWNGVGIFFDSFDNDGKKNNPAIVIIGNNGQIHYDHQNDGASQALASCQRDFRNKPYPVRAKITYYQNTLTVMINNGFTPDKNDYEFCAKVENMIIPAQGHFGISAATGGLADDHDVLSFLTFQLTEPGKEPPTPDKEISEKE
MYRTHYSSEITEELNGQKVKVAGWVWEVKDLGGIKFLWIRDRDGIVQITAPKKKVDPELFKLIPKLRSEDVVAVEGVVNFTPKAKLGFEILPEKIVVLNRAETPLPLDPTGKVKAELDTRLNNRFMDLRRPEVMAIFKIRSSVFKAVRDFFHENGFIEIHTPKIIATATEGGTELFPMKYFEEDAFLAESPQLYKEIMMASGLDRVYEIAPIFRAEEHNTTRHLNEAWSIDSEMAFIEDEEEVMSFLERLVAHAINYVREHNAKELDILNFELEEPKLPFPRVSYDKALEILGDLGKEIPWGEDIDTEGERLLGKYMMENENAPLYFLYQYPSEAKPFYIMKYDNKPEICRAFDLEYRGVEISSGGQREHRHDILVEQIKEKGLNPESFEFYLKAFRYGMPPHGGFGLGAERLIKQMLDLPNIREVILFPRDRRRLTP

Soluble on expression in E. coli, not soluble:
MSLKQKLSHPYLAKHISAPKIDEDKLLLFHALFEEADIKNNDRENYIVTAMLVQSALDTHDEVTTARVIKRDENKNRQLTVLAGDYFSGLYYSLLSEMKDIYMIRTLATAIKEINEHKIRLYDRSFKDENDFFESVGIVESALFHRVAEHFNLPRWKKLSSDFFVFKRLMNGNDAFLDVIGSFIQLGKTKEEILEDCFKKAKNSIESLLPLNSPIQNILINRLKTISQDQTYHQKEGHHHHHH
ISAVIVGTAEDIYSRVLALMCQRKGAVSICLQHGALMGDEAFIPVFTTYQAVFGAYEAEWFIRKGCKPEQILVTGHPRFDQIFNRTPMDMSIFYRKLAFQPTKKIVLIATQPFSEDFYSGVLQGLSDQKQLQIIIKPHPWEIGKNKLDLYHEAAKKHQACRVIKKELELYDLLPYVDAAVTQTSTVGLEAMLFQKPVLIGKSSGNRSYPYYESLGDFMFDQPDELAHTLVEVLRSP
MQCALYDAGRCRSCQWITQPIPEQLSAKTADLKNLLADFPVEEWCAPVSGPEQGFRNKAKMVVSGSVEKTLLGMLHRDGTPEDLCDCPLYPASFAPVFAALKPFIARAGLTPYNVARKRGELKYILLTESQSDGGMMLRFVLRSDTKLAQLRKALPWLHEQLPQLKVITVNIQPVHMAIMEGETEIYLTEQQALAERFNDVPLWIRPQSFFQTNPAVASQLYATARDWVRQLPVKHMWDLFCGVGGFGLHCATPDMQLTGIEIAPEAIACAKQSAAELGLTRLQFQALDSTQFATAQGEVPELVLVNPPRRGIGKPLCDYLSTMAPRFIIYSSCNAQTMAKDIRELPGYRIERVQLFDMFPHTAHYEVLTLLVKQ
MNKIIISIGREFGSGGRRIGELLAKELEVPCYDRHLIEEAACRSGFETKELEEADEMKANRFLFKVPAKSNQYTGYGKPMNDTLFAIQSELIRKYADAGSCVIVGRCADKVLEKQEGLISVFIYAPLEARVEEIRRRYETDGEEALYLVRQADKIRRNYYNYYAKKKWGDRSSYDLMIDSSHFTDREVAAMIRAVSEERKAEWEENKFSTPQG
